Assays:
Settings in all cases: chain copies: 4
MuA transposase [1] = target: T1, MuA transposase (UniProt P07636 P07636:1-663); experiment: EMSA; transpososome complex band about 300 bp; 30 C 1 h, Tris pH 8, EDTA, NaCl, 10% DMSO; complexes fragment gDNA with 10 mM MgCl2 (FIG. 2)
MuA transposase [2] = target: T1, MuA transposase; experiment: EMSA; no complex formed, no transposition activity; 30 C 1 h
MuA transposase [3] = target: T1, MuA transposase; experiment: EMSA; complexes formed and active; 30 C 1 h
MuA transposase [4] = target: T1, MuA transposase; experiment: EMSA; worked well in complex formation and gDNA fragmentation (FIG. 4)
MuA transposase [5] = target: T1, MuA transposase; experiment: EMSA; worked well in complex formation and gDNA fragmentation; the cited figure shows fragmentation

T1 sequence (P07636 whole entry, the tested form may be a part, one chain of several): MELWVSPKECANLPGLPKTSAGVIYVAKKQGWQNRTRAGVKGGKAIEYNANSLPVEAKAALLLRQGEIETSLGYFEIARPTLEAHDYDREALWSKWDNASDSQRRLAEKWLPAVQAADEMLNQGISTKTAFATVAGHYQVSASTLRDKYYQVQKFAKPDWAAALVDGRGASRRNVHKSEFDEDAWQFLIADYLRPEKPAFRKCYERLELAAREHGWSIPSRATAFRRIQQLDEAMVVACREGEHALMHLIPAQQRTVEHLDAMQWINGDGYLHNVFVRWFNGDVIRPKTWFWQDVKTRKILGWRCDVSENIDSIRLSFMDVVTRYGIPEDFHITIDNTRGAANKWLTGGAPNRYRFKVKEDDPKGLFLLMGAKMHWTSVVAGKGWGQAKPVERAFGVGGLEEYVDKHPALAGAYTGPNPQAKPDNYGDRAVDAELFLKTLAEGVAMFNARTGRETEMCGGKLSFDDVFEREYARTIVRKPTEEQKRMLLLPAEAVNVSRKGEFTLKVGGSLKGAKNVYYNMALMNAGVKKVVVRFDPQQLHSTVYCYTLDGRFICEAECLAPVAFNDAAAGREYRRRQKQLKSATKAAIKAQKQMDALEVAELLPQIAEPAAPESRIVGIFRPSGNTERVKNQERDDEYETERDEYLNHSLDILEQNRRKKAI

B1: native Mu transposon end (dsDNA)
DNA 1: GTTTTCGCATTTATCGTGAAACGCTTTCGCGTTTTTCGTGCGCCGCTTCA
DNA 2: TGAAGCGGCGCACGAAAAACGCGAAAGCGTTTCACGATAAATGCGAAAAC
B1: binds (MuA transposase [1]).

B2: Mu end with 3' TCAG key (dsDNA)
DNA 1: GTTTTCGCATTTATCGTGAAACGCTTTCGCGTTTTTCGTGCGCCGCTCAG
DNA 2: CTGAGCGGCGCACGAAAAACGCGAAAGCGTTTCACGATAAATGCGAAAAC
B2: no binding (MuA transposase [2]).

B3: Mu end with GTCA key (dsDNA)
DNA 1: GTTTTCGCATTTATCGTGAAACGCTTTCGCGTTTTTCGTGCGCCGCGTCA
DNA 2: TGACGCGGCGCACGAAAAACGCGAAAGCGTTTCACGATAAATGCGAAAAC
B3: binds (MuA transposase [3]).

B4: Mu end with TGCA key (dsDNA)
DNA 1: GTTTTCGCATTTATCGTGAAACGCTTTCGCGTTTTTCGTGCGCCGCTGCA
DNA 2: TGCAGCGGCGCACGAAAAACGCGAAAGCGTTTCACGATAAATGCGAAAAC
B4: binds (MuA transposase [3]).

B5: Mu end with internal TCAG key (5th, 6th, 8th bases) (dsDNA)
DNA 1: GTTTTCGCATTTATCGTGAAACGCTTTCGCGTTTTTCGTGCGTCAGTTCA
DNA 2: TGAACTGACGCACGAAAAACGCGAAAGCGTTTCACGATAAATGCGAAAAC
B5: binds (MuA transposase [4]).

B6: Mu end modified at 10th and 11th bases (dsDNA)
DNA 1: GTTTTCGCATTTATCGTGAAACGCTTTCGCGTTTTTCGTCAGCCGCTTCA
DNA 2: TGAAGCGGCTGACGAAAAACGCGAAAGCGTTTCACGATAAATGCGAAAAC
B6: binds (MuA transposase [5]).
